Source: the supplement of paper PMC10724198
± gives the standard deviation of the averaged measurements.

tested on: Saccharomyces cerevisiae; assay: protein stability index of tFT-peptide fusion (C-terminal peptide) (PSI (0-1 scale)); higher = more stable (slower turnover); conditions: genetic background: wild type; temperature: 30 C
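Note: PSI is a weighted mean of sequencing reads over stability bins, variants kept only with over 10 reads, mCherry proximal and sfGFP distal, peptide attached via GGGS linker.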

| Sequence | protein stability index |
| --- | --- |
| MLFWDVGLLVFN | 0.579 ± 0.049 |
| MLFWPPPSLRMP | 0.701 ± 0.0083 |
| MLPTPSPPRPPF | 0.698 ± 0.021 |
| MNFCLGVFVDLA | 0.6857 ± 0.0037 |
| MRECGLSEARGG | 0.651 ± 0.021 |
| MRKGNGGGPRRR | 0.728 ± 0.019 |
| MRLTLGSHMAYY | 0.69 ± 0.082 |
| MTRGRWAKKTAK | 0.688 ± 0.038 |
| MVKLGVGREEVV | 0.655 ± 0.018 |
| MVVEGLERWGRV | 0.723 ± 0.045 |
| MWPCRVRWLDHW | 0.73 ± 0.034 |
| MYASVGAIHPRL | 0.738 ± 0.074 |
| NACLRNPTTKGG | 0.694 ± 0.086 |
| NAFSHSASRVIS | 0.682 ± 0.016 |
| NAGNDVFSLDIC | 0.683 ± 0.034 |
| NCRGNLDFGPLV | 0.727 ± 0.042 |
| NDLRRAVSARYV | 0.676 ± 0.032 |
| NFGLYGAPFTLG | 0.665 ± 0.041 |
| NFNRKTNGVFRS | 0.693 ± 0.059 |
| NFRILIKKRGDE | 0.643 ± 0.071 |
| NGAGRGMVGGCG | 0.666 ± 0.079 |
| NGLACGSLTLLK | 0.6738 ± 0.0019 |
| NGPDAKTIEVRQ | 0.658 ± 0.048 |
| NGRTYIDEESKI | 0.745 ± 0.16 |
| NGVLRPMATGAP | 0.666 ± 0.039 |
| NGYASLGGEPKR | 0.7576 ± 0.0041 |

| Sequence | protein stability index |
| --- | --- |
| NIHKNKKKGLKE | 0.686 ± 0.0088 |
| NIKEKEIKRQVR | 0.693 ± 0.051 |
| NIKKLSHRTRRI | 0.857 ± 0.2 |
| NINKINKKCTRV | 0.645 ± 0.055 |
| NKEYSLIIKTHN | 0.61529 ± 0.00011 |
| NKISRDAVWNCR | 0.657 ± 0.053 |
| NKKDKKMNKDKR | 0.6791 ± 0.0014 |
| NKNKKKKEKKSR | 0.725 ± 0.12 |
| NKPRSYRVDKRQ | 0.615 ± 0.015 |
| NKRIRKIKKKCK | 0.701 ± 0.065 |
| NKRSNIKVSDQR | 0.691 ± 0.03 |
| NKTKKKRTEPQP | 0.6616 ± 0.005 |
| NKTNSKKSIFTV | 0.703 ± 0.01 |
| NLAVSFIVGGLW | 0.747 ± 0.026 |
| NLCPLPPPLLTS | 0.675 ± 0.035 |
| NLINPCRRPPVP | 0.648 ± 0.088 |
| NLRFTTSCNGPL | 0.649 ± 0.018 |
| NLRGPEYVKRTD | 0.677 ± 0.021 |
| NLSYPSCDPPAT | 0.5836 ± 0.0032 |
| NNLSPLPGPSLI | 0.713 ± 0.018 |
| NNSLKTTMVATK | 0.58 ± 0.065 |
| NNYPHSEKCLKE | 0.643 ± 0.009 |
| NPPALPPFSPSP | 0.708 ± 0.01 |
| NPPCPYPPLRPR | 0.595 ± 0.044 |
| NPVYSFRAHRLG | 0.5128 ± 0.0037 |
| NRDIYQNWPKRK | 0.831 ± 0.14 |

| Sequence | protein stability index |
| --- | --- |
| NRGLYNLYRMSR | 0.645 ± 0.0027 |
| NRHGRALPSLEA | 0.644 ± 0.014 |
| NRNKKTKKKVII | 0.6697 ± 0.0062 |
| NRRVSGPLCMQE | 0.687 ± 0.054 |
| NRSKNKKIIREI | 0.6341 ± 0.0056 |
| NRTRFLSLDTRP | 0.719 ± 0.023 |
| NSAPPPPHTPPP | 0.699 ± 0.018 |
| NSSADRSTNPTQ | 0.649 ± 0.019 |
| NSSLSLPFGPPP | 0.69 ± 0.011 |
| NSTPTTPPIPHQ | 0.702 ± 0.091 |
| NSTTNVKTQHTL | 0.731 ± 0.023 |
| NSTTQKKEQKQI | 0.711 ± 0.043 |
| NSVMSRGCGNRG | 0.626 ± 0.044 |
| NTNSTRSDNVFD | 0.622 ± 0.011 |
| NTPHSRSLRSNH | 0.695 ± 0.017 |
| NTTTTKNRTPKR | 0.6952 ± 0.0063 |
| NVACNGKGEQVL | 0.7268 ± 0.0011 |
| NVCICSIRNATN | 0.804 ± 0.11 |
| NVENSNTAGKGV | 0.689 ± 0.024 |
| NVKPGKIRRRRG | 0.667 ± 0.14 |
| NVLVSPFVPLSF | 0.724 ± 0.0089 |
| NWAPRCCIGNII | 0.669 ± 0.12 |
| NWIIARFVPIGL | 0.685 ± 0.041 |
| NYLLYSRRSVRV | 0.532 ± 0.04 |
| PACPLISPIGRF | 0.673 ± 0.05 |
| PADLCPPGSLSP | 0.683 ± 0.01 |

| Sequence | protein stability index |
| --- | --- |
| PADSRGNSPPPQ | 0.675 ± 0.055 |
| PAHPGRPPILGS | 0.597 ± 0.036 |
| PAHRRLLPWPPA | 0.71 ± 0.14 |
| PAIPPPPTAAPT | 0.678 ± 0.087 |
| PAKNKKKKKNRK | 0.6911 ± 0.0031 |
| PALASHLAPLDP | 0.6958 ± 0.0049 |
| PALPAPFLSSPH | 0.6737 ± 0.00099 |
| PALPFPPLTAFH | 0.683 ± 0.036 |
| PAPDATQRVRSQ | 0.645 ± 0.0089 |
| PAPLPFPLPTSL | 0.757 ± 0.015 |
| PAPPAPTHAPPL | 0.683 ± 0.11 |
| PAPPCPGTSPFP | 0.7055 ± 0.001 |
| PAPPFPPRPSPF | 0.673 ± 0.056 |
| PAPPHPRIPSPT | 0.669 ± 0.073 |
| PAPPLPLTPPPL | 0.788 ± 0.014 |
| PAPPPLPPHSLP | 0.718 ± 0.024 |
| PAPPPPPPPLYP | 0.718 ± 0.013 |
| PAPPPPPPTPPP | 0.646 ± 0.039 |
| PAPPPPPPTTVL | 0.691 ± 0.03 |
| PAPPPRDLPTPP | 0.664 ± 0.007 |
| PAPPPRRPPAPP | 0.689 ± 0.017 |
| PAPPPSSPRSIH | 0.674 ± 0.032 |
| PAPPSLAAPRGT | 0.663 ± 0.0092 |
